Experimental data reported in patent US7183387 (Genentech, dated 2007).

B1: anti-IgE E27 IgG1 Ser239Ala (antibody)
heavy: not shown
light: DIQLTQSPSSLSASVGDRVTITCRASKPVDGEGDSYLNWYQQKPGKAPKLLIYAASYLESGVPSRFSGSGSGTDFTLTISSLQPEDFATYYCQQSHEDPYTFGQGTKVEIKRTVAAPSVFIFPPSDEQLKSGTASVVCLLNNFYPREAKVQWKVDNALQSGNSQESVTEQDSKDSTYSLSSTLTLSKADYEKHKVYACEVTHQGLSSPVTKSFNRGEC
B2: anti-IgE E27 IgG1 Ser267Ala (antibody)
heavy: not shown
light: B1 light
notes: also called G15 S267A
B3: anti-IgE E27 IgG1 Val303Ala (antibody)
heavy: not shown
light: B1 light
B4: anti-IgE E27 IgG1 Ser424Ala (antibody)
heavy: not shown
light: B1 light
B5: anti-IgE E27 IgG1 Thr307Ala (antibody)
heavy: not shown
light: B1 light
B6: anti-IgE E27 IgG1 Ser415Ala (antibody)
heavy: not shown
light: B1 light
B7: anti-IgE E27 IgG1 Ser298Ala (antibody)
heavy: not shown
light: B1 light
notes: also called G36 S298A
B8: anti-IgE E27 IgG1 Val305Ala (antibody)
heavy: not shown
light: B1 light
B9: anti-IgE E27 IgG1 Thr256Ala (antibody)
heavy: not shown
light: B1 light
B10: anti-IgE E27 IgG1 Ser337Ala (antibody)
heavy: not shown
light: B1 light
B11: anti-IgE E27 IgG1 variant E294(311)Q (antibody)
heavy: not shown
light: B1 light
notes: Fc variant of E27; also called IG2 173
B12: anti-IgE E27 IgG1 variant E283(300)S (antibody)
heavy: not shown
light: B1 light
notes: Fc variant of E27; also called IG2 227
B13: anti-IgE E27 IgG1 variant R292(309)A (antibody)
heavy: not shown
light: B1 light
notes: Fc variant of E27; also called IG2 31; G31
B14: anti-IgE E27 IgG1 variant E283(300)A (antibody)
heavy: not shown
light: B1 light
notes: Fc variant of E27; also called IG2 25
B15: anti-IgE E27 IgG1 variant E283(300)N (antibody)
heavy: not shown
light: B1 light
notes: Fc variant of E27; also called IG2 228
B16: anti-IgE E27 IgG1 variant R292(309)N (antibody)
heavy: not shown
light: B1 light
notes: Fc variant of E27; also called IG2 83
B17: anti-IgE E27 IgG1 variant P331(350)K (antibody)
heavy: not shown
light: B1 light
notes: Fc variant of E27
B18: anti-IgE E27 IgG1 variant E283(300)Q (antibody)
heavy: not shown
light: B1 light
notes: Fc variant of E27; also called IG2 226
B19: anti-IgE E27 IgG1 variant E294(311)A (antibody)
heavy: not shown
light: B1 light
notes: Fc variant of E27; also called IG2 33
B20: anti-IgE E27 IgG1 variant E283(300)D (antibody)
heavy: not shown
light: B1 light
notes: Fc variant of E27
B21: anti-IgE E27 IgG1 variant P331(350)N (antibody)
heavy: not shown
light: B1 light
notes: Fc variant of E27; also called IG2 199
B22: anti-IgE E27 IgG1 variant K334(353)R (antibody)
heavy: not shown
light: B1 light
notes: Fc variant of E27; also called Lys334Arg
B23: anti-IgE E27 IgG1 variant R292(309)H (antibody)
heavy: not shown
light: B1 light
notes: Fc variant of E27; also called IG2 81
B24: anti-IgE E27 IgG1 variant E294(311)D (antibody)
heavy: not shown
light: B1 light
notes: Fc variant of E27; also called IG2 174
B25: anti-IgE E27 IgG1 variant E333(352)G (antibody)
heavy: not shown
light: B1 light
notes: Fc variant of E27; also called IG2 178
B26: anti-IgE E27 IgG1 variant E380(405)A/L309(328)A (antibody)
heavy: not shown
light: B1 light
notes: Fc variant of E27; also called IG2 271; Glu380Ala/Leu309Ala
B27: anti-IgE E27 IgG1 variant R292(309)K (antibody)
heavy: not shown
light: B1 light
notes: Fc variant of E27; also called IG2 80
B28: anti-IgE E27 IgG1 variant P331(350)E (antibody)
heavy: not shown
light: B1 light
notes: Fc variant of E27; also called IG2 200
B29: anti-IgE E27 IgG1 variant P331(350)S (antibody)
heavy: not shown
light: B1 light
notes: Fc variant of E27; also called IG2 198; Pro331Ser

What follows are binders tested against T1, human FcγRIIA-Arg131 α subunit extracellular domain-His6-GST fusion (human, UniProt P12318 34-217) (assay: hexamer ELISA).
T1 construct: extracellular domain; also called FcγRIIA-R131; not shown: glutathione S transferase (GST)
T1 sequence: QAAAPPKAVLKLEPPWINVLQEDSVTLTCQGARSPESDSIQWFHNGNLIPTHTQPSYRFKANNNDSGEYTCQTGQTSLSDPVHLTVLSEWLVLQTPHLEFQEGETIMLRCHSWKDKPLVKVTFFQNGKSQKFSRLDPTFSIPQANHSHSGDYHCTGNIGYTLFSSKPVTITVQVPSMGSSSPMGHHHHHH

First: B1
Second: B2
The “ratio to native IgG1” value of the first is lower: 0.73 ratio for the first, 1.52 ratio for the second.

First: B3
Second: B4
The “ratio to native IgG1” value of the first is lower: 0.86 ratio for the first, 1.04 ratio for the second.

First: B5
Second: B6
The “ratio to native IgG1” value of the first is higher: 1.07 ratio for the first, 0.9 ratio for the second.

Going from B7 to B8, the “ratio to native IgG1” value rises from 0.4 ratio to 1.12 ratio.

Compared with B9, B10 is lower in “ratio to native IgG1” value: 1.41 ratio for the first, 1.22 ratio for the second.

The binders below were run against T2, human FcγRIIIA-Phe158 α subunit extracellular domain-His6-GST fusion (human, UniProt P08637 17-208) (assay: hexamer ELISA).
T2 construct: extracellular domain; also called FcγRIIIA-F158; CD16; not shown: glutathione S transferase (GST)
T2 sequence (P08637 other isoform, or with tags, fused parts or gaps): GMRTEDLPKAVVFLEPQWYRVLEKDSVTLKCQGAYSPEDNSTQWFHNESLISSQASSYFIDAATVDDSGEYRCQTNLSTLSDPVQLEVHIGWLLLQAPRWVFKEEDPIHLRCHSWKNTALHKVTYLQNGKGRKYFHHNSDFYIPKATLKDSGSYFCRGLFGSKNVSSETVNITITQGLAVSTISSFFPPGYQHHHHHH

Compared with B1, B2 is higher in “ratio to native IgG1” value: 0.26 ratio for the first, 1.05 ratio for the second.

Compared with B3, B4 is higher in “ratio to native IgG1” value: 0.33 ratio for the first, 0.89 ratio for the second.

Compared with B5, B6 is lower in “ratio to native IgG1” value: 1.09 ratio for the first, 0.86 ratio for the second.

Going from B7 to B8, the “ratio to native IgG1” value falls from 1.34 ratio to 0.84 ratio.

First: B9
Second: B10
The “ratio to native IgG1” value of the first is higher: 1.32 ratio for the first, 0.94 ratio for the second.

The binders below were run against T3, human FcγRIIB α subunit extracellular domain-His6-GST fusion (human, UniProt P31994 43-217) (assay: hexamer ELISA).
T3 construct: extracellular domain; also called CD32; not shown: glutathione S transferase (GST)
T3 sequence: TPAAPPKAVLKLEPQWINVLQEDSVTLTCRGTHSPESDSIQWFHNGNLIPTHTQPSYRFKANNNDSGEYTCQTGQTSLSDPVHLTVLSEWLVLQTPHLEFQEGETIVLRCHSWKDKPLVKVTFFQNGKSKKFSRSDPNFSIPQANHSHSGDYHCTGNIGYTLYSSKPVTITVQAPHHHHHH

Compared with B1, B2 is higher in “ratio to native IgG1” value: 0.76 ratio for the first, 1.84 ratio for the second.

Going from B3 to B4, the “ratio to native IgG1” value rises from 0.65 ratio to 1.02 ratio.

First: B5
Second: B6
The “ratio to native IgG1” value of the first is higher: 1.27 ratio for the first, 0.88 ratio for the second.

Compared with B7, B8 is higher in “ratio to native IgG1” value: 0.23 ratio for the first, 1.23 ratio for the second.

Going from B9 to B10, the “ratio to native IgG1” value falls from 2.06 ratio to 1.26 ratio.

Each binder was assayed against T4, human FcγRIIA-R131 α subunit extracellular domain-His6-GST fusion (human, UniProt P12318 34-217) (assay: ELISA, IgG complex, receptor coated).
T4 construct: ECD-6His-GST fusion made in 293 cells; also called FcγRIIA-Arg131; not shown: glutathione S transferase (GST)
T4 sequence: T1 sequence

Going from B11 to B12, the “ratio of binding, variant/native IgG1 (mean)” value rises from 1.01 ratio to 1.03 ratio.

First: B13
Second: B14
The “ratio of binding, variant/native IgG1 (mean)” value of the first is lower: 0.27 ratio for the first, 1.24 ratio for the second.

Compared with B15, B16 is lower in “ratio of binding, variant/native IgG1 (mean)” value: 1.18 ratio for the first, 0.54 ratio for the second.

Going from B17 to B18, the “ratio of binding, variant/native IgG1 (mean)” value rises from 0.94 ratio to 1.12 ratio.

Compared with B19, B20 is higher in “ratio of binding, variant/native IgG1 (mean)” value: 0.87 ratio for the first, 1.14 ratio for the second.

Compared with B21, B22 is higher in “ratio of binding, variant/native IgG1 (mean)” value: 0.86 ratio for the first, 1.15 ratio for the second.

First: B23
Second: B24
The “ratio of binding, variant/native IgG1 (mean)” value of the first is lower: 0.21 ratio for the first, 0.37 ratio for the second.

First: B25
Second: B26
The “ratio of binding, variant/native IgG1 (mean)” value of the first is lower: 0.87 ratio for the first, 0.98 ratio for the second.

Going from B27 to B28, the “ratio of binding, variant/native IgG1 (mean)” value rises from 0.71 ratio to 1.06 ratio.

B29 was tested, and the “ratio of binding, variant/native IgG1 (mean)” value was 1 ratio.

Each binder was assayed against T5, human FcγRIIIA-F158 α subunit extracellular domain-His6-GST fusion (human, UniProt P08637 17-208) (assay: ELISA, IgG complex, receptor coated).
T5 construct: ECD-6His-GST fusion made in 293 cells; also called FcγRIIIA-Phe158; not shown: glutathione S transferase (GST)
T5 sequence (P08637 other isoform, or with tags, fused parts or gaps, form in doubt): as the sequence (P08637 other isoform, or with tags, fused parts or gaps) above

First: B11
Second: B12
The “ratio of binding, variant/native IgG1 (mean)” value of the first is lower: 0.84 ratio for the first, 0.85 ratio for the second.

Going from B13 to B14, the “ratio of binding, variant/native IgG1 (mean)” value rises from 0.9 ratio to 1.01 ratio.

Going from B15 to B16, the “ratio of binding, variant/native IgG1 (mean)” value falls from 0.94 ratio to 0.88 ratio.

Compared with B17, B18 is higher in “ratio of binding, variant/native IgG1 (mean)” value: 0.33 ratio for the first, 1.19 ratio for the second.

Going from B19 to B20, the “ratio of binding, variant/native IgG1 (mean)” value rises from 0.66 ratio to 0.95 ratio.

Compared with B21, B22 is higher in “ratio of binding, variant/native IgG1 (mean)” value: 0.23 ratio for the first, 0.68 ratio for the second.

First: B23
Second: B24
The “ratio of binding, variant/native IgG1 (mean)” value of the first is higher: 0.92 ratio for the first, 0.14 ratio for the second.

Compared with B25, B26 is lower in “ratio of binding, variant/native IgG1 (mean)” value: 1.05 ratio for the first, 0.92 ratio for the second.

Compared with B27, B28 is lower in “ratio of binding, variant/native IgG1 (mean)” value: 1.15 ratio for the first, 0.42 ratio for the second.

For B29, the “ratio of binding, variant/native IgG1 (mean)” value was 0.86 ratio.

What follows are binders tested against T6, human neonatal Fc receptor (FcRn), biotinylated (human, UniProt P55899 24-297; P61769 21-119, biotinylated (biotin-X-NHS)) (assay: FcRn ELISA, pH 6.0;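 further: Streptavidin-captured FcRn plates, IgG variants titrated 2 h at pH 6.0, peroxidase anti-human IgG read at 450 nm, variant over standard concentration at the standard curve mid-point absorbance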).
T6 construct: captured on streptavidin plates
T6 sequence (P55899 24-297 limits assumed, chain 1 of 2): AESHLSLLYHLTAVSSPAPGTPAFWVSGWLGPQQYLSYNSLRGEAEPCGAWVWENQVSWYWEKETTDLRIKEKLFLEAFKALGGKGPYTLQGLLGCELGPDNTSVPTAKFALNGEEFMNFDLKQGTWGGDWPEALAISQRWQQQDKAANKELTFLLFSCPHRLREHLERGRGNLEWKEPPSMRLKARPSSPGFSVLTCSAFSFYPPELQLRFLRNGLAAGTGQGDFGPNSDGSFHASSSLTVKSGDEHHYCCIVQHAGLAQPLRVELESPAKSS
T6 sequence (P61769 21-119 limits assumed, chain 2 of 2): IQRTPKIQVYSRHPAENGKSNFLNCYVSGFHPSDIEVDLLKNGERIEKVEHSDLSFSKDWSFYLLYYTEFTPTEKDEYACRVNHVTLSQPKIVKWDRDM

Compared with B1, B2 is higher in “ratio to native IgG1” value: 1.06 ratio for the first, 1.08 ratio for the second.

First: B3
Second: B4
The “ratio to native IgG1” value of the first is lower: 1.26 ratio for the first, 1.41 ratio for the second.

Compared with B5, B6 is lower in “ratio to native IgG1” value: 1.81 ratio for the first, 0.44 ratio for the second.

Compared with B7, B8 is higher in “ratio to native IgG1” value: 0.8 ratio for the first, 1.46 ratio for the second.

Compared with B9, B10 is lower in “ratio to native IgG1” value: 1.91 ratio for the first, 1.03 ratio for the second.

Each binder was assayed against T7, human FcγRIIIA-V158 α subunit extracellular domain-His6-GST fusion (human, UniProt P08637 17-208) (assay: ELISA, IgG monomer, receptor coated).
T7 construct: ECD-6His-GST fusion made in 293 cells; also called FcγRIIIA-Val158; not shown: glutathione S transferase (GST)
T7 sequence (P08637 other isoform, or with tags, fused parts or gaps, form in doubt): as the sequence (P08637 other isoform, or with tags, fused parts or gaps) above, with F160V counted along it

Compared with B11, B12 is higher in “ratio of binding, variant/native IgG1 (mean)” value: 0.79 ratio for the first, 0.83 ratio for the second.

First: B13
Second: B14
The “ratio of binding, variant/native IgG1 (mean)” value of the first is higher: 0.94 ratio for the first, 0.78 ratio for the second.

Going from B15 to B16, the “ratio of binding, variant/native IgG1 (mean)” value rises from 0.63 ratio to 0.91 ratio.

Compared with B17, B18 is higher in “ratio of binding, variant/native IgG1 (mean)” value: 0.26 ratio for the first, 0.89 ratio for the second.

Compared with B19, B20 is lower in “ratio of binding, variant/native IgG1 (mean)” value: 0.68 ratio for the first, 0.67 ratio for the second.

Compared with B21, B22 is higher in “ratio of binding, variant/native IgG1 (mean)” value: 0.24 ratio for the first, 0.88 ratio for the second.

Going from B23 to B24, the “ratio of binding, variant/native IgG1 (mean)” value falls from 1.21 ratio to 0.26 ratio.

Going from B25 to B26, the “ratio of binding, variant/native IgG1 (mean)” value falls from 1.23 ratio to 1.1 ratio.

Going from B27 to B28, the “ratio of binding, variant/native IgG1 (mean)” value falls from 1.64 ratio to 0.36 ratio.

With B29 the “ratio of binding, variant/native IgG1 (mean)” value was 0.54 ratio.

These binders were tested against T8, human FcγRIA α subunit extracellular domain-His6-GST fusion (human, UniProt P12314 16-292) (assay: FcγRI ELISA and THP-1 cells, averaged).
T8 construct: extracellular domain; also called GST-FcγRIA; CD64; not shown: glutathione S transferase (GST)
T8 sequence (P12314 other isoform, or with tags, fused parts or gaps): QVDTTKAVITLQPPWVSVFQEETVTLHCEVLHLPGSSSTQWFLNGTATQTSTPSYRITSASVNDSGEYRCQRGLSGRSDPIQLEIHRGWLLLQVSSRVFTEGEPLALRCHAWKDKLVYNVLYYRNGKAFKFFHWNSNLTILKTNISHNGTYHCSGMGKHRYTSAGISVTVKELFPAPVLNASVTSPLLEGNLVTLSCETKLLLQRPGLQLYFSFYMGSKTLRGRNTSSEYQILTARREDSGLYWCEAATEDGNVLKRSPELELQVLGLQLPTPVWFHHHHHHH

Going from B1 to B2, the “ratio to native IgG1” value rises from 0.81 ratio to 1.09 ratio.

Going from B3 to B4, the “ratio to native IgG1” value rises from 0.91 ratio to 0.98 ratio.

Going from B5 to B6, the “ratio to native IgG1” value rises from 0.99 ratio to 1.04 ratio.

First: B7
Second: B8
The “ratio to native IgG1” value of the first is higher: 1.11 ratio for the first, 1.04 ratio for the second.

Compared with B9, B10 is higher in “ratio to native IgG1” value: 1.01 ratio for the first, 1.17 ratio for the second.
